The source of these data is the supplement of paper PMC10724198.

± gives the standard deviation of the averaged measurements.
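Also: PSI is a weighted mean of sequencing reads over stability bins, variants kept only with over 10 reads, mCherry proximal and sfGFP distal, peptide attached via GGGS linker.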

In the data set the test system is Saccharomyces cerevisiae. Description: protein stability index of tFT-peptide fusion (C-terminal peptide) (PSI (0-1 scale)); higher = more stable (slower turnover). To be noted: genetic background: wild type; temperature: 30 C.
Regarding KRITLNADIIIK, the protein stability index amounted to 0.629 ± 0.11.
The result for KRKHQSPLLNTR reads 0.705 ± 0.021; that for KRKQDKEAEKKS, 0.704 ± 0.019; that for KRKREKKEKADA, 0.66 ± 0.043.
Under KRLCTYRMIGSL stands 0.521 ± 0.0089; under KRLNRVHRSTKV, 0.687 ± 0.021; under KRNSLSLIPQII, 0.655 ± 0.071.
The result for KRPVTPTFGRLQ reads 0.645 ± 0.067; that for KRQKENRKNKKI, 0.704 ± 0.019; that for KRRRWFILSGPL, 0.685 ± 0.008.
For KRSGEGREKIRK, the protein stability index amounted to 0.703 ± 0.028.
The result for KRSIVSTDKDRY reads 0.603 ± 0.045.
For the sequence KRVIVRLASYAS, the protein stability index amounted to 0.55909 ± 2.1e-05.
The result for KSGVWLWGGGGG reads 0.724 ± 0.032; that for KSKKERREKKKA, 0.665 ± 0.031.
KSKKNKTEKTKE yielded a protein stability index of 0.665 ± 0.027.
Sequence KSKKRERDETKK returned a protein stability index of 0.645 ± 0.033.
Regarding KSKQKNKTQVKN, the protein stability index was found to be 0.66 ± 0.023.
In the case of KSPSTRATTHTY, the protein stability index was 0.678 ± 0.028.
Regarding KSRLYVDVLMQR, the protein stability index is 0.659 ± 0.077.
Under KSRTRNNVSRVG stands 0.6703 ± 0.0062; under KSVVRLPHLPLE, 0.695 ± 0.02.
In turn, KTDNTRTQKMVR came in with a protein stability index of 0.808 ± 0.011.
Under KTEEERKKAEKE stands 0.653 ± 0.076.
In turn, KTGEKIKKNNIK showed a protein stability index of 0.692 ± 0.059.
KTKERKKQMRKI yielded a protein stability index of 0.6822 ± 0.0042.
In turn, KTKKKNKKDQKM had a protein stability index of 0.6661 ± 0.0047.
Sequence KTKKKRKQKGKQ yielded a protein stability index of 0.684 ± 0.064.
The result for KTKKRKTKKKTK reads 0.723 ± 0.036; that for KTKKTKRRHKAE, 0.662 ± 0.022; that for KTKNIKTKDKPE, 0.673 ± 0.024.
Sequence KTKSKNGNQRAT had a protein stability index of 0.711 ± 0.025.
Consider KTQKKKKKNKNF, for which the protein stability index was determined as 0.51 ± 0.028.
Take KTVKNGKEVKIH: the protein stability index amounted to 0.635 ± 0.12.
As for KTVVYDDRKQLR, the protein stability index amounted to 0.674 ± 0.0096.
As for KVAILAIPKCWT, the protein stability index turned out to be 0.644 ± 0.022.
The sequence KVDRREGSRGGG yielded a protein stability index of 0.6816 ± 0.004.
Turning to KVGLGGRLQSYP, the protein stability index was determined as 0.6338 ± 0.0054.
The sequence KVKGGELVRTLR displayed a protein stability index of 0.736 ± 0.021.
Sequence KVSPTAGLTSRI gave a protein stability index of 0.711 ± 0.061.
KVSSCLTNFILV gave a protein stability index of 0.552 ± 0.029.
With KVVSGLKSGPVQ, the protein stability index was 0.677 ± 0.055.
KWSETGQDGIER had a protein stability index of 0.701 ± 0.081.
The sequence KYIKNKKEKTEE registered a protein stability index of 0.701 ± 0.017.
The sequence KYISKKKKEKKK gave a protein stability index of 0.684 ± 0.06.
Consider KYPVDHHTPLSS, for which the protein stability index was determined as 0.703 ± 0.021.
Consider LAARRHRACPPR, for which the protein stability index stood at 0.67 ± 0.014.
In turn, LAASVTERPAGR displayed a protein stability index of 0.703 ± 0.011.
For LAAWQPTSYASV, the protein stability index amounted to 0.592 ± 0.092.
Under LACLPPLLLFSL stands 0.539 ± 0.00097; under LADSLILWRFPT, 0.722 ± 0.087; under LAEFTCTQGCSY, 0.67 ± 0.088.
As for LAFGLGSFVWNC, the protein stability index came out at 0.6765 ± 0.00075.
Regarding LAKVNSLLGFSK, the protein stability index amounted to 0.734 ± 0.037.
Sequence LALDPVNLVTSL yielded a protein stability index of 0.682 ± 0.051.
The result for LAPLRGHDHSRA reads 0.6638 ± 0.0055; that for LARLFQLLERPW, 0.688 ± 0.063.
For LATIPTFPPLPP, the protein stability index amounted to 0.634 ± 0.089.
Turning to LCAFPFSHPSSI, the protein stability index amounted to 0.74 ± 0.05.
Under LCGAFLPPPFSR stands 0.686 ± 0.052; under LCGLDCLLRPCY, 0.681 ± 0.011.
As for LCGYAMSFRPLG, the protein stability index was 0.73 ± 0.091.
Sequence LCHLSSFLAALS displayed a protein stability index of 0.618 ± 0.012.
Sequence LCILIFLFRCIL returned a protein stability index of 0.551 ± 0.036.
Sequence LCLDHAKQNPGK registered a protein stability index of 0.6641 ± 0.0051.
Under LCLRPVISLPHL stands 0.716 ± 0.075.
With LCPLPPPTVPLP, the protein stability index was 0.742 ± 0.02.
The result for LCPVLRSPFFLF reads 0.55128 ± 0.00052; that for LCVAFWLGLPTT, 0.598 ± 0.011.
Regarding LCVGQVGLWVGR, the protein stability index was 0.703 ± 0.042.
Under LCYLPLTLPPVL stands 0.582 ± 0.036; under LDEQIKIRIKEK, 0.721 ± 0.046; under LDFSAWRYGRSW, 0.83 ± 0.038.
The result for LDGLFWHRPCFK reads 0.734 ± 0.061; that for LDLSIKNPIKWR, 0.747 ± 0.089; that for LDQQKSCHLIFL, 0.663 ± 0.033.
For the sequence LDSPGIDRRSFM, the protein stability index came to 0.737 ± 0.064.
In turn, LEGGACFGVCEW showed a protein stability index of 0.6956 ± 0.0048.
Regarding LERDRLINVLPI, the protein stability index is 0.726 ± 0.042.
On to LESEDDRKLSLL, for which the protein stability index stood at 0.659 ± 0.011.
